The results in this text go back to patent US11643670B2, “Methods of enhancing chromosomal homologous recombination” (Massachusetts Institute of Technology, priority 2018, dated 2023).

The test system of one assay is Tyr^C89S locus. Description: Tyr^C89S knock-in by three-component CRISPR, genotyping/albino phenotype of F0 pups. In kind it is in vivo, mouse. As to the method:
tracrRNA, crRNAs, and ssODNs were synthesized by Integrated DNA Technologies (TABLE 1). All injection mixtures were prepared in a final volume of 50 μL according to the following methodology: Using RNase-free water, reagents, and consumables, crRNA (final concentration 0.61 μM), tracrRNA (final concentration 0.61 μM), and ultrapure Tris-HCl, pH 7.39 (final concentration 10 mM, ThermoFisher) were mixed and incubated at 95° C. for 5 minutes. The mixtures were cooled to room temperature for 10 minutes on the benchtop, and then, EnGen Cas9-NLS S. pyogenes (New England Biolabs) was added to a final concentration of 30 ng/μL. The mixtures were incubated at 37° C. for 15 minutes before adding any remaining components: ssODN (final concentration 3 ng/μL or 30 ng/μL), RAD51 (Creative Biomart, final concentration 10 ng/μL). Injection mixtures were stored on ice and briefly heated to 37° C. prior to injection. For experiments utilizing RS-1, embryos were cultured in KSOM-AA (EMD Millipore MR-121-D) with […] RS-1 (Sigma) dissolved in DMSO or DMSO (Sigma, 1:1000) for 24 hours, washed, and cultured in EmbryoMax FHM HEPES Buffered Medium (Sigma) until collection for genotyping.
For all experiments except those described in FIG. 6, the male pronucleus was injected. Injections performed for the CPI portion of FIG. 6 were targeted to the cytoplasm. […]

Another assay has as its system R1684H locus. Description: Genotyping of F1 offspring of F0 Chd2^R1684H/R1684H animals made by the IVF strategy. The format is in vivo, mouse. To be noted: F0 homozygotes (IVF strategy including RAD51) crossed with wildtype C57Bl/6N. As to the method: Tail snips (˜0.5 cm length) were collected from animals, placed in 75 μL alkaline lysis buffer (25 mM NaOH, 0.2 mM EDTA), and incubated at 95° C. for 30 minutes. Digestion was stopped via addition of 75 μL neutralization buffer (40 mM Tris-HCl pH 5.0). Samples were stored at 4° C. until genotyping.
Chd2^R1684H genotyping was performed via a two-step, nested approach. Except for experiments described in FIGS. 3A-3G, all 8 μL of embryo DNA were used as input for the initial, long round of PCR. Genotyping of mouse pups and adult animals was performed using 2 μL of purified tail DNA. For all embryo genotyping, reactions mixtures were set up in a UV-sterilized laminar flow hood using sterile reagents and filter tips to avoid contamination. All PCR was performed using Biolase DNA Polymerase (Bioline), fresh aliquots of dNTPs (New England Biolabs), and 2% DMSO (final concentration). Primer pair #1 was used for FIGS. 1A-1E, FIGS. 2A-2E, FIGS. 3A-3G, FIG. 5, FIGS. 7A-7C, FIG. 8, and FIG. 9. All other experiments utilized primer pair #2 to further rule out large deletions that could disrupt primer binding sites. 20 cycles of amplification were performed using 30 second extension and annealing times and an annealing temperature of 67° C. Nested PCR was then performed using 2 μL of the initial 25 μL PCR reaction as input. […]

B1: RAD51: recombinant human strand exchange protein RAD51 (Creative Biomart RAD51-134H), transcript variant 4 (protein, UniProt Q06609 2-339, looked up)
DNA repair protein RAD51 …: AMQMQLEANADTSVEEESFGPQPISRLEQCGINANDVKKLEEAGFHTVEAVAYAPKKELINIKGISEAKADKILAEAAKLVPMGFTTATEFHQRRSEIIQITTGSKELDKLLQGGIETGSITEMFGEFRTGKTQICHTLAVTCQLPIDRGGGEGKAMYIDTEGTFRPERLLAVAERYGLSGSDVLDNVAYARAFNTDHQTQLLYQASAMMVESRYALLIVDSATALYRTDYSGRGELSARQMHLARFLRMLLRLADEFGVAVVITNQVVAQVDGAAMFAADPKKPIGGNIIAHASTTRLYLRKGRGETRICKIYDSPCLPEAEAMFAINADGVGDAKD
As for B1, in the assay with Tyr^C89S locus (F0 pups with RAD51, 12% without), the “pups with albino phenotype from homozygous KI of the Tyr^C89S allele” value amounted to 44.4%. In addition, in the assay with Tyr^C89S locus (Tyr locus), the “homozygous KI rate relative to injection without RAD51” value was “more than doubled”. For the same molecule, the “F1 offspring heterozygous for the R1684H mutation” value in the assay with R1684H locus stood at 100%.
